Laboratory results reported in article PMC5698418 (Nature Communications, 2017).

B1: WT: wild-type mouse Arc-Myc-FLAG protein overexpressed in Neuro2a cells (protein, UniProt Q9WV31 1-396, looked up)
Activity-regulated …: MELDHMTTGGLHAYPAPRGGPAAKPNVILQIGKCRAEMLEHVRRTHRHLLTEVSKQVERELKGLHRSVGKLENNLDGYVPTGDSQRWKKSIKACLCRCQETIANLERWVKREMHVWREVFYRLERWADRLESMGGKYPVGSEPARHTVSVGVGGPEPYCQEADGYDYTVSPYAITPPPAAGELPEQESVEAQQYQSWGPGEDGQPSPGVDTQIFEDPREFLSHLEEYLRQVGGSEEYWLSQIQNHMNGPAKKWWEFKQGSVKNWVEFKKEFLQYSEGTLSREAIQRELELPQKQGEPLDQFLWRKRDLYQTLYVDAEEEEIIQYVVGTLQPKLKRFLRHPLPKTLEQLIQRGMEVQDGLEQAAEPSGTPLPTEDETEALTPALTSESVASDRTQPE
modifications: Myc-FLAG tag
B2: K33Q: acetyl-mimic/unmodifiable mutant Arc-Myc-FLAG, lysine 33 to glutamine (protein, UniProt Q9WV31 1-396, looked up, variant K33Q)
Activity-regulated …: MELDHMTTGGLHAYPAPRGGPAAKPNVILQIGQCRAEMLEHVRRTHRHLLTEVSKQVERELKGLHRSVGKLENNLDGYVPTGDSQRWKKSIKACLCRCQETIANLERWVKREMHVWREVFYRLERWADRLESMGGKYPVGSEPARHTVSVGVGGPEPYCQEADGYDYTVSPYAITPPPAAGELPEQESVEAQQYQSWGPGEDGQPSPGVDTQIFEDPREFLSHLEEYLRQVGGSEEYWLSQIQNHMNGPAKKWWEFKQGSVKNWVEFKKEFLQYSEGTLSREAIQRELELPQKQGEPLDQFLWRKRDLYQTLYVDAEEEEIIQYVVGTLQPKLKRFLRHPLPKTLEQLIQRGMEVQDGLEQAAEPSGTPLPTEDETEALTPALTSESVASDRTQPE
modifications: Myc-FLAG tag
notes: acetyl-mimic/unmodifiable mutant Arc-Myc-FLAG, lysine 33 to glutamine
B3: K55Q: acetyl-mimic/unmodifiable mutant Arc-Myc-FLAG, lysine 55 to glutamine (protein, UniProt Q9WV31 1-396, looked up, variant K55Q)
Activity-regulated …: MELDHMTTGGLHAYPAPRGGPAAKPNVILQIGKCRAEMLEHVRRTHRHLLTEVSQQVERELKGLHRSVGKLENNLDGYVPTGDSQRWKKSIKACLCRCQETIANLERWVKREMHVWREVFYRLERWADRLESMGGKYPVGSEPARHTVSVGVGGPEPYCQEADGYDYTVSPYAITPPPAAGELPEQESVEAQQYQSWGPGEDGQPSPGVDTQIFEDPREFLSHLEEYLRQVGGSEEYWLSQIQNHMNGPAKKWWEFKQGSVKNWVEFKKEFLQYSEGTLSREAIQRELELPQKQGEPLDQFLWRKRDLYQTLYVDAEEEEIIQYVVGTLQPKLKRFLRHPLPKTLEQLIQRGMEVQDGLEQAAEPSGTPLPTEDETEALTPALTSESVASDRTQPE
modifications: Myc-FLAG tag
notes: acetyl-mimic/unmodifiable mutant Arc-Myc-FLAG, lysine 55 to glutamine

Test system: Neuro2a cells
Settings: for Fold-change to WT: protein half-life in Neuro2a
From the text: Next, we aimed to determine whether the K24, K33, K55, and K70 residues participate in Arc protein turnover. […] We also included K70 in this experiment because of its position in the coiled-coil and nuclear retention domains of Arc (Fig. 5e) as well as its relative proximity to K55. For this test, we used site-directed mutagenesis to generate plasmids that would allow overexpression of an acetyl-mimic/unmodifiable mutant Arc-Myc-FLAG protein (lysine (K) to glutamine (Q) mutant) for each of these four sites. After transfecting sets of Neuro2a cells with these different constructs, we inhibited translation with CHX and monitored overexpressed protein levels for up to 6 h after.
Lysates were collected at the indicated time points and Arc-Myc-FLAG protein level analyzed in every sample by western blotting with an anti-FLAG antibody. Representative western blots are presented on top and quantification of data normalized to corresponding β-actin and presented as percentage of Arc-Myc-FLAG level (±SEM) at the initial time point after CHX application (t = 0). Curve represents exponential decay fit. b Estimate of protein half-life Arc for WT Arc-Myc-FLAG and each acetyl-mimic mutant is presented in table. c WT and acetyl-mutant Arc-Myc-FLAG polyubiquitination was determined in lysates from overexpressing Neuro2a cells. Lysates were immunoprecipitated with anti-FLAG and western blotted with anti-Ub or anti-Arc as indicated.
Neuro2A cells were cultured in DMEM (supplemented with 10% fetal bovine serum (Gemini-Bio-Products, West Sacramento, CA), penicillin (50 units ml^−1), and streptomycin (50 µg ml^−1)) and transfected overnight using Lipofectamine 2000 (Invitrogen) according to the manufacturer’s protocol. The Neuro2A cell line was generously shared by Dr. Grace Gill.
The pCMV6-Arc-Myc-DDK (FLAG) plasmid (MR206218) was purchased from OriGene Biotechnologies (Rockville, MD). The Arc-Myc-FLAG K24Q, K24R, K33Q, K55Q, K70Q, and K70R plasmids were generated with the help of the Q5 Site-Directed Mutagenesis Kit from New England BioLabs (Ipswich, MA) using WT pCMV6-Arc-Myc-FLAG as template. All constructs were verified by DNA sequencing.

Molecule | Estimated t½ | Fold-change to WT
B1 | 2.77 h | 1.00
B2 | 2.63 h | −1.05
B3 | 2.40 h | −1.15
